{"source": "the RNAGym collection of RNA variant scans (doi:10.1021/acssynbio.7b00057)", "parents": {"B1": {"name": "Pistol ribozyme (parent)", "chain": "GGGUCGUUGUUCCAUAAUCGCGUGGAUAUGGCACGCAAGUUUCUACCGGGCACCGUAAAUGUCCGACUGGAGCCGUUCGGGCGGCUAUAAACAGACCUCAGGCCCGAAGCGUGGCGGCACCUGCCGCCGGUGGUAAAAAAGAUCGGAAGAGCACACGUCU"}}}
{"variants_of": "B1", "test": "aptazyme ON/OFF ratio, guanine; higher = stronger switching; co-transcriptional cleavage with and without guanine"}
{"variant": "U7G U8G G9A U10G C12A C13G", "aptazyme ON/OFF ratio": 1.07}
{"variant": "U7G U8G G9C U10A U11G", "aptazyme ON/OFF ratio": 1.11}
{"variant": "U7G U8G G9C U10A U11C", "aptazyme ON/OFF ratio": 1.04}
{"variant": "U7G U8G G9C U10A U11A", "aptazyme ON/OFF ratio": 1.67}
{"variant": "U7G U8G G9C U10A U11A C13U", "aptazyme ON/OFF ratio": 1.07}
{"variant": "U7G U8G G9C U10A U11A C13G", "aptazyme ON/OFF ratio": 1.02}
{"variant": "U7G U8G G9C U10A U11A C13A", "aptazyme ON/OFF ratio": 1.06}
{"variant": "U7G U8G G9A U10G C12U C13G", "aptazyme ON/OFF ratio": 1.31}
{"variant": "U7G U8G G9A U10G C12U C13A", "aptazyme ON/OFF ratio": 1.25}
{"variant": "U7G U8G G9A U10G C12U C13U", "aptazyme ON/OFF ratio": 1.17}
{"variant": "U7G U8G G9A U10C U11A C12A C13G", "aptazyme ON/OFF ratio": 1.15}
{"variant": "U7G U8G G9A U10C U11A C12A C13U", "aptazyme ON/OFF ratio": 1.25}
{"variant": "U7G U8G G9A U10C U11A C12A C13A", "aptazyme ON/OFF ratio": 1.2}
{"variant": "U7G U8G G9A U10G U11G C12U C13A", "aptazyme ON/OFF ratio": 1.71}
{"variant": "U7G U8G G9A U10G U11G C12U C13U", "aptazyme ON/OFF ratio": 1.11}
{"variant": "U7G U8G G9A U10G U11G C12U C13G", "aptazyme ON/OFF ratio": 1.27}
{"variant": "U7G U8G G9A U10G U11G", "aptazyme ON/OFF ratio": 1.61}
{"variant": "U7G U8G G9A U10G U11A", "aptazyme ON/OFF ratio": 1.07}
{"variant": "U7G U8G G9A U10G U11C", "aptazyme ON/OFF ratio": 1.05}
{"variant": "U7G U8G G9C U10C U11C C12U C13U", "aptazyme ON/OFF ratio": 1.06}
{"variant": "U7G U8G G9C U10C U11C C12U C13A", "aptazyme ON/OFF ratio": 1.08}
{"variant": "U7G U8G G9C U10C U11C C12U C13G", "aptazyme ON/OFF ratio": 1.23}
{"variant": "U7G U8G G9C U10A U11A C12A C13U", "aptazyme ON/OFF ratio": 1.04}
{"variant": "U7G U8G G9C U10A U11A C12A C13G", "aptazyme ON/OFF ratio": 1.04}
{"variant": "U7G U8G G9C U10A U11A C12A C13A", "aptazyme ON/OFF ratio": 1.05}
{"variant": "U7G U8G G9A U11C C12A C13G", "aptazyme ON/OFF ratio": 1.15}
{"variant": "U7G U8G G9A U11C C12A C13U", "aptazyme ON/OFF ratio": 1.41}
{"variant": "U7G U8G G9A U11C C12A C13A", "aptazyme ON/OFF ratio": 1.39}
{"variant": "U7G U8G G9A U10G U11A C12U C13G", "aptazyme ON/OFF ratio": 1.21}
{"variant": "U7G U8G G9A U10G U11A C12U C13U", "aptazyme ON/OFF ratio": 1.07}
{"variant": "U7G U8G G9A U10G U11A C12U C13A", "aptazyme ON/OFF ratio": 1.15}
{"variant": "U7G U8G G9A U10C U11C C13G", "aptazyme ON/OFF ratio": 0.991}
{"variant": "U7G U8G G9A U10C U11C C13A", "aptazyme ON/OFF ratio": 0.99}
{"variant": "U7G U8G G9A U10C U11C C13U", "aptazyme ON/OFF ratio": 1.01}
{"variant": "U7G U8G G9A U10G U11A C13G", "aptazyme ON/OFF ratio": 1.11}
{"variant": "U7G U8G G9A U10G U11A C13A", "aptazyme ON/OFF ratio": 1.11}
{"variant": "U7G U8G G9A U10G U11A C13U", "aptazyme ON/OFF ratio": 1.12}
{"variant": "U7G U8G G9C U10A U11G C12U", "aptazyme ON/OFF ratio": 1.12}
{"variant": "U7G U8G G9C U10A U11G C12A", "aptazyme ON/OFF ratio": 1.05}
{"variant": "U7G U8G G9C U10A U11G C12G", "aptazyme ON/OFF ratio": 1.08}
{"variant": "U7G U8G G9C U10A C12U C13G", "aptazyme ON/OFF ratio": 1.03}
{"variant": "U7G U8G G9C U10A C12U C13A", "aptazyme ON/OFF ratio": 1.01}
{"variant": "U7G U8G G9C U10A C12U C13U", "aptazyme ON/OFF ratio": 1.04}
{"variant": "U7G U8G G9A U10C", "aptazyme ON/OFF ratio": 3.59}
{"variant": "U7G U8G G9A U10G", "aptazyme ON/OFF ratio": 1.83}
{"variant": "U7G U8G G9A U10C U11C C12U C13A", "aptazyme ON/OFF ratio": 1.04}
{"variant": "U7G U8G G9A U10C U11C C12U C13U", "aptazyme ON/OFF ratio": 1.13}
{"variant": "U7G U8G G9A U10C U11C C12U C13G", "aptazyme ON/OFF ratio": 1.36}
{"variant": "U7G U8G G9C U10C U11G C12U C13A", "aptazyme ON/OFF ratio": 1.25}
{"variant": "U7G U8G G9C U10C U11G C12U C13U", "aptazyme ON/OFF ratio": 1.22}
{"variant": "U7G U8G G9C U10C U11G C12U C13G", "aptazyme ON/OFF ratio": 1.22}
{"variant": "U7G U8G G9C U10A C12U", "aptazyme ON/OFF ratio": 1.02}
{"variant": "U7G U8G G9C U10A C12G", "aptazyme ON/OFF ratio": 1.03}
{"variant": "U7G U8G G9C U10A C12A", "aptazyme ON/OFF ratio": 1.03}
{"variant": "U7G U8G G9C U10A U11C C12U C13A", "aptazyme ON/OFF ratio": 1.06}
{"variant": "U7G U8G G9C U10A U11C C12U C13U", "aptazyme ON/OFF ratio": 1.04}
{"variant": "U7G U8G G9C U10A U11C C12U C13G", "aptazyme ON/OFF ratio": 1.19}
{"variant": "U7G U8G G9A U10G C12G C13U", "aptazyme ON/OFF ratio": 1.55}
{"variant": "U7G U8G G9A U10G C12G C13G", "aptazyme ON/OFF ratio": 1.16}
{"variant": "U7G U8G G9A U10G C12G C13A", "aptazyme ON/OFF ratio": 1.11}
{"variant": "U7G U8G G9A U10G C12A", "aptazyme ON/OFF ratio": 1.27}
{"variant": "U7G U8G G9A U10G C12U", "aptazyme ON/OFF ratio": 1.29}
{"variant": "U7G U8G G9A U10G C12G", "aptazyme ON/OFF ratio": 1.28}
{"variant": "U7G U8G G9A U11C C12U", "aptazyme ON/OFF ratio": 1.65}
{"variant": "U7G U8G G9A U11C C12G", "aptazyme ON/OFF ratio": 1.33}
{"variant": "U7G U8G G9A U11C C12A", "aptazyme ON/OFF ratio": 1.5}
{"variant": "U7G U8G G9A U10A U11G C12A C13U", "aptazyme ON/OFF ratio": 1.1}
{"variant": "U7G U8G G9A U10A U11G C12A C13A", "aptazyme ON/OFF ratio": 1.13}
{"variant": "U7G U8G G9A U10A U11G C12A C13G", "aptazyme ON/OFF ratio": 1.03}
{"variant": "U7G U8G G9C C12U C13A", "aptazyme ON/OFF ratio": 1.11}
{"variant": "U7G U8G G9C C12U C13G", "aptazyme ON/OFF ratio": 1.22}
{"variant": "U7G U8G G9C C12U C13U", "aptazyme ON/OFF ratio": 1.12}
{"variant": "U7G U8G G9A U10C C12G", "aptazyme ON/OFF ratio": 1.28}
{"variant": "U7G U8G G9A U10C C12U", "aptazyme ON/OFF ratio": 1.59}
{"variant": "U7G U8G G9A U10C C12A", "aptazyme ON/OFF ratio": 1.46}
{"variant": "U7G U8G G9C U10C U11A C12U", "aptazyme ON/OFF ratio": 1.3}
{"variant": "U7G U8G G9C U10C U11A C12G", "aptazyme ON/OFF ratio": 1.32}
{"variant": "U7G U8G G9C U10C U11A C12A", "aptazyme ON/OFF ratio": 1.3}
{"variant": "U7G U8G G9C U10C U11C C12A C13G", "aptazyme ON/OFF ratio": 1.14}
{"variant": "U7G U8G G9C U10C U11C C12A C13A", "aptazyme ON/OFF ratio": 1.05}
{"variant": "U7G U8G G9C U10C U11C C12A C13U", "aptazyme ON/OFF ratio": 1.1}
{"variant": "U7G U8G G9A U10C U11G C12A C13A", "aptazyme ON/OFF ratio": 1.11}
{"variant": "U7G U8G G9A U10C U11G C12A C13U", "aptazyme ON/OFF ratio": 1.19}
{"variant": "U7G U8G G9A U10C U11G C12A C13G", "aptazyme ON/OFF ratio": 1.14}
